Data: article PMC6532856, “A single dose of antibody-drug conjugate cures a stage 1 model of African trypanosomiasis” (PLoS Neglected Tropical Diseases, 2019)
Positions count from the first letter of the chain named.

B1: Tb017 scFv (scFv, V domains shown)
VH: QVQLVQSGAEVKKPGSSVKVSCKASGGTFSSYAISWVRQAPGQGLEWMGGIIPIFGTANYAQKFQGRVTITADESTSTAYMELSSLRSEDTAVYYCARGWWYDLVFDYWGQGTLVTVSS
VL: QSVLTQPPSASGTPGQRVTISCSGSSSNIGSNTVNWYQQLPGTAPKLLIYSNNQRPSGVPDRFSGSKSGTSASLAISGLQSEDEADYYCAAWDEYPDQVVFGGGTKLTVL
notes: framework domains and CDR1-3 marked; source: phage produced from E. coli, phage-containing supernatant
B2: Tb085 scFv (scFv, V domains shown)
VH: B1 VH with G99E, W100G, Y102D, D103Y, L104G, V105W, Y108F
VL: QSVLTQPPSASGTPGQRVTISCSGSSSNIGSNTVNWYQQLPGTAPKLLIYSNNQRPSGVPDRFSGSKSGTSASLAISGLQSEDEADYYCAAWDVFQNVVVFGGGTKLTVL
notes: as for B1
B3: Tb078 scFv (scFv, V domains shown)
VH: B1 VH with W101I, D103E, L104F, V105I, F106I, Y108A
VL: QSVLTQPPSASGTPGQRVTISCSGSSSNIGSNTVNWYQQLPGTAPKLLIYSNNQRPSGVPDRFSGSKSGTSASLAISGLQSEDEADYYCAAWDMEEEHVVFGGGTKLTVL
notes: as for B1
B4: Tb086 scFv (scFv, V domains shown)
VH: B1 VH with W101Y, D103H, L104G, V105G, F106I
VL: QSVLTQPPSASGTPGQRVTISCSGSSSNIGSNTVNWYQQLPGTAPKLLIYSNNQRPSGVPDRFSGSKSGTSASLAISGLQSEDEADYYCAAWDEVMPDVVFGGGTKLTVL
notes: as for B1
B5: Tb074 scFv (scFv, V domains shown)
VH: B1 VH with Y102H, D103E, L104P, V105G
VL: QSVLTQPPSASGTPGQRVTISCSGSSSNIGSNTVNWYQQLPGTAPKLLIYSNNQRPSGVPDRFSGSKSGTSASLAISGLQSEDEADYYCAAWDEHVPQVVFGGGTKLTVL
notes: as for B1
B6: Tb073 scFv (scFv, V domains shown)
VH: B1 VH with W101Y, Y102D, D103M, L104G, V105D, Y108M
VL: QSVLTQPPSASGTPGQRVTISCSGSSSNIGSNTVNWYQQLPGTAPKLLIYSNNQRPSGVPDRFSGSKSGTSASLAISGLQSEDEADYYCAAWDWHHGHVVVFGGGTKLTVL
notes: as for B1

The binders below were run against T1, Recombinant HpHbR N-terminal domain (Trypanosoma brucei haptoglobin-haemoglobin receptor) (Trypanosoma brucei brucei, biotin (only for the protein coated on streptavidin-coated plates; site not stated)) (assay: ELISA; phage ELISA: 10 ug/ml TbHpHbR NTD coated onto Nunc Maxisorp plates or 5 ug/mL biotinylated protein on streptavidin-coated plates overnight at 4°C; blocked phage supernatants 1 hr at room temperature; bound phage detected with anti-M13 HRP antibody; BSA and streptavidin in parallel). Conditions: one partner purified.
T1 construct: also called HpHbR NTD; TbHpHbR NTD; source: recombinant, expressed as previously described [34]

Q: Does B1 bind?
A: binds

Q: Does B2 bind?
A: binds

Q: Does B3 bind?
A: binds

Q: Does B4 bind?
A: binds

Q: Does B5 bind?
A: binds

Q: Does B6 bind?
A: binds
